Reference: patent US20220411495A1, “POSITIVE ALLOSTERIC MODULATORS OF THE CALCIUM-SENSING RECEPTOR” (VIB VZW, priority 2019, published 2022)
Changes are numbered by the printed parent chain. One block for each molecule: values may come before it.

Biological target: T1, human CaSR wild type (hCaSR WT) (Homo sapiens, UniProt P41180, E1011Q)
T1 construct: mGlu5 signal peptide (N, cleaved yes); expressed in transfected cells
T1 sequence (P41180 20-1078 E1011Q): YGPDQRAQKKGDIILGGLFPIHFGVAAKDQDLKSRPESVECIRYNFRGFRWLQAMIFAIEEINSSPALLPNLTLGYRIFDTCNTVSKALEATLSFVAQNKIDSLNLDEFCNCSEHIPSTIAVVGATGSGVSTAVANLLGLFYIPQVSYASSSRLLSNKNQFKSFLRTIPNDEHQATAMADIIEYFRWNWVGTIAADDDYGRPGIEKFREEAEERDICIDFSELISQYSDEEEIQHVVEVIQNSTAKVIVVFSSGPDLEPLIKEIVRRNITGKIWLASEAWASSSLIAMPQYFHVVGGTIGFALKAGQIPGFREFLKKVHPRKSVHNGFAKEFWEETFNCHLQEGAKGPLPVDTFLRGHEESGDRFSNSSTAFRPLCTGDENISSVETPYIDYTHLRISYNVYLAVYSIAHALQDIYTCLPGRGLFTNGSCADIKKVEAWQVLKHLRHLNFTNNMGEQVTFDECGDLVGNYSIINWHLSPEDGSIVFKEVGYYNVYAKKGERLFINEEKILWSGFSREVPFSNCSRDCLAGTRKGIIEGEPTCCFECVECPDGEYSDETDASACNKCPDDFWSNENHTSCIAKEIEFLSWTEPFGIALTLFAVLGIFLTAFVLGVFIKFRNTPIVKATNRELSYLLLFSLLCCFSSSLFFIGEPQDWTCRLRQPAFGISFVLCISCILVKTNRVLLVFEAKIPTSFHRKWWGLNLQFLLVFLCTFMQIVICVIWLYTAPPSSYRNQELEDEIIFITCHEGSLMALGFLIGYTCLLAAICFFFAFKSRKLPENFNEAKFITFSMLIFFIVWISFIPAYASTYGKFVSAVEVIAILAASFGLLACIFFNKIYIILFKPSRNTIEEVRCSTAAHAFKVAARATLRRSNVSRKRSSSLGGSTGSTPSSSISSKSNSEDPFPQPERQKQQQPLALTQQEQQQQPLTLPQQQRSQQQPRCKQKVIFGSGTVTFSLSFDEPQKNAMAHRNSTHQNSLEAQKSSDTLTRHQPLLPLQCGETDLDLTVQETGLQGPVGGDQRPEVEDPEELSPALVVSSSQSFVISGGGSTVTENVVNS
Assay: IP1 accumulation assay, Flp-In HEK293 HA-hCaSR WT cells
Assay type: cell-based
Settings: for Effect on Ca2+ concentration-response curve (IP1): increasing concentrations of PAM; for PAM activity in IP1 accumulation screen: fixed nanobody concentration 5 μM, 30 min pre-incubation
Procedure: Nanobodies were successfully purified by immobilized metal ion affinity chromatography (IMAC) and size exclusion chromatography (SEC) prior to pharmacological characterization (FIG. 1). Each nanobody was initially screened for Gq/11 activity in the Cisbio IP1 accumulation assay as this is the primary signaling pathway of CaSR (Chavez-Abiega et al., 2020). Whole HEK293 HA-hCaSR WT cells were pre-incubated for 30 minutes at 37° C. with a fixed nanobody concentration (5 μM) prior to stimulation with the endogenous ligand Ca^2+. The well characterized positive allosteric modulator (PAM) chemical NPS R-568 and negative allosteric modulator (NAM) chemical NPS 2143 were added as reference compounds. […] No nanobodies with agonist or NAM activity were observed when all nanobodies screened in the absence or in the presence of EC80 Ca^2+, respectively (FIGS. 4A and 4B). […] Except for CaSR Nb5, the same nanobodies acted as PAMs when ERK1/2 phosphorylation was measured in the presence of EC20 Ca^2+ (FIG. 2B). Again, none of the nanobodies elicited an agonist or NAM response (FIGS. 5B and 5C).
All cell lines utilized in this study were grown at 37° C. and 5% CO2. The HEK293A (RRID: CVCL_6910) and stable Flp-In HEK293 cells were cultured in Dulbecco's Modified Eagle Medium (DMEM, #31966021) supplemented with 10% dialyzed Fetal Bovine Serum (dFBS) and 1% 10,000 units/mL penicillin and 10,000 μg/mL streptomycin mixture (pen/strep). The stable Flp-In CHO cells were cultured in F-12K medium (#21127022) supplemented with 10% dFBS and 1% pen/strep. Additionally, the stable Flp-In HEK293 and Flp-In CHO cell lines were cultured in the presence of respectively 200 and 500 μg/mL hygromycin B. For pharmacological characterization, Flp-In HEK293 HA-hCaSR WT cells were seeded in poly-D-lysine-coated clear 96 well tissue culture plates (Corning, Corning, N.Y., USA) at a density of 50,000 cells/well 18 h prior to assay. Experiments with HA-rCaSR WT and HA-hCaSR S170A required transient transfection of HEK293A cells 24 h prior to assay. DNA construct and Lipofectamine 2000 were diluted in Opti-MEM and mixed together after 5 minutes incubation at room temperature. For HA-rCaSR WT, 30 ng/well rCaSR DNA diluted in 25 μL/well Opti-MEM was mixed with 0.25 μL/well Lipofectamine 2000 in 25 μL/well Opti-MEM. For HA-hCaSR S170A, 40 ng/well […] DNA diluted in 25 μL/well Opti-MEM was mixed with 0.25 μL/well Lipofectamine 2000 in 25 μL/well Opti-MEM. The DNA:Lipofectamine 2000 mixtures were incubated 20 minutes at room temperature after which 50 μL/well was added to a poly-D-lysine-coated clear 96 well tissue culture plate. Next, 100 μL/well of a 400,000 cells/mL HEK293A cell solution prepared in culture media was added and the plate was placed at 37° C. and 5% CO2 (final cell density 40,000 cells/well).
Inositol monophosphate (IP1) accumulation was measured using the commercially available HTRF® IP1 accumulation kit (Cisbio Bioassays, Codolet, France) and an EnVision multimode plate reader (PerkinElmer, Waltham, Mass., USA). Unless stated otherwise, the cells were washed once with 100 μL/well assay buffer and stimulated for 30 minutes at 37° C. with 50 μL/well ligand(s) diluted in assay buffer supplemented with 20 mM LiCl. Following stimulation, the cells were washed once with 100 μL/well and lysed for 30 minutes at room temperature with 30 μL/well lysis buffer provided with the kit. The lysed cells were diluted 1:2 with assay buffer after which 10 μL/well was pipetted to a white 384-well OptiPlate (PerkinElmer, Waltham, Mass., USA). Next, 10 μL of a detection solution consisting of 2.5% IP1-d2 conjugate and 2.5% anti-IP1 antibody diluted in assay buffer was added to each well. Fluorophore emissions were measured after the plate was stored in the dark for 1 h. The 615/665 nm emission ratios measured upon excitation at 340 nm were converted to IP1 concentrations with an IP1 standard curve according to the manufacturer's instructions.

[1] = IP1 accumulation at EC20 Ca2+, three independent experiments in triplicate

- Need for pre-incubation for PAM activity (IP1) (5 μM, with or without 30 minutes pre-incubation at 37° C., EC20 Ca2+): did not require pre-incubation
- IP1 accumulation in the absence of added Ca2+ (1:1 ratio, total 10 μM, alone = combined with inactive Nb7): did not induce IP1 accumulation
- Max. response (fold over basal ± S.E.M.), human ortholog (IP1 accumulation at EC20 Ca2+): 3.89 ± 0.07 fold over basal
- EC50 (IP1 accumulation at EC20 Ca2+, three independent experiments in triplicate, read-out: Potency (pEC50 ± S.E.M.), human ortholog (converted)): 120 nM
Molecule: COc1cccc([C@@H](C)NCCCc2ccccc2Cl)c1 [NPS R-568, reference compound]

- Max. response (fold over basal ± S.E.M.), human ortholog (IP1 accumulation at EC20 Ca2+): 4.04 ± 0.32 fold over basal
- Potency (pEC50 ± S.E.M.), human ortholog [1]: 6.22 ± 0.05
- PAM activity in IP1 accumulation screen (EC20 Ca2+): potentiated IP1 accumulation
B2: Nb37: llama-derived CaSR-specific nanobody acting as PAM, SEQ ID NO:4 (protein)
VHH: QVQLVESGGGLVQPGDSLRVSCAASGGSFRSYAMAWFRRAPGKEREFVAAMSGTYGSTIYADSMKGRFTISRDNAKKMVYLRMNSLRAEDTAVYYCAGYYSGAYYGTPKTDYTEYDSWGQGTQVTVSS
modifications: CaSR Nb37

- Max. response (fold over basal ± S.E.M.), human ortholog (IP1 accumulation at EC20 Ca2+): 3.50 ± 0.17 fold over basal
- Potency (pEC50 ± S.E.M.), human ortholog [1]: 6.28 ± 0.07
- PAM activity in IP1 accumulation screen (EC20 Ca2+): potentiated IP1 accumulation
B5: Nb11: llama-derived CaSR-specific nanobody acting as PAM, SEQ ID NO:6 (protein)
VHH: QVQLVESGGGLVQAGGSLRLSCAASGRTFSTYRMGWFRQGPGKEREFVAAITATGVKTYYTDSVKGRFTISRDNAKNTVYLQMNSVQPEDTAVYSCAARIKAIFTAQQAATITDYDYWGQGTQVTVSS
modifications: CaSR Nb11

Further lines, the molecule ahead of its results:

Molecule: C[C@@H](NCCCc1cccc(C(F)(F)F)c1)c1cccc2ccccc12 [cinacalcet, reference compound]
- Effect on Ca2+ concentration-response curve (IP1): leftward shift

B1: Nb10: llama-derived CaSR-specific nanobody acting as PAM, SEQ ID NO:3 (protein)
VHH: B2 VHH with R39Q, A61S, A88P
modifications: CaSR Nb10
- Max. response (fold over basal ± S.E.M.), human ortholog (IP1 accumulation at EC20 Ca2+): 3.36 ± 0.09 fold over basal
- Potency (pEC50 ± S.E.M.), human ortholog [1]: 6.33 ± 0.03
- PAM activity in IP1 accumulation screen (EC20 Ca2+): potentiated IP1 accumulation

B3: Nb2: llama-derived CaSR-specific nanobody acting as PAM, SEQ ID NO:9 (protein)
VHH: QVQLVESGGGLVQAGSSLRLSCAASGRTFSNYRMAWFRQAPGKEREFVAVISRGGGGADYADSVKGRFTISRDNVKNTVSLQMNSLKPEDTAVYFCAARISGFSYYTSVDRYDYWGQGTQVTVSS
modifications: CaSR Nb2
- Max. response (fold over basal ± S.E.M.), human ortholog (IP1 accumulation at EC20 Ca2+): 3.52 ± 0.21 fold over basal
- Potency (pEC50 ± S.E.M.), human ortholog [1]: 6.71 ± 0.08
- PAM activity in IP1 accumulation screen (EC20 Ca2+): potentiated IP1 accumulation

B4: Nb5: llama-derived CaSR-specific nanobody, weakest PAM, SEQ ID NO:8 (protein)
VHH: QVQLVESGGRLVQDGGSLRLSCAASGLTFSDYSMGWFRQVPGKEREFVAVIRRSNDSTYYADFVKGRFTISRDNAKNTVYLQMNSLQPEDTAVYSCAADRGGVGLTSAQTYAYWGQGTQVTVSS
modifications: CaSR Nb5
- Max. response (fold over basal ± S.E.M.), human ortholog (IP1 accumulation at EC20 Ca2+): 1.88 ± 0.05 fold over basal
- PAM activity in IP1 accumulation screen (EC20 Ca2+): potentiated IP1 accumulation

B6: Nb15: llama-derived CaSR-specific nanobody acting as PAM, SEQ ID NO:10 (protein)
VHH: QVQLVESGGGLVQAGGSLRLSCAASGRTFNNYHMAWFRQAPGKEREFAAAISRRAGTTYYADSVKGRFTISRDNAKNTVYLQMNSLKPEDTAVYYCAADPDTYGVSYLARKYDYWGQGTQVTVSS
modifications: CaSR Nb15
- Max. response (fold over basal ± S.E.M.), human ortholog (IP1 accumulation at EC20 Ca2+): 3.38 ± 0.36 fold over basal
- Potency (pEC50 ± S.E.M.), human ortholog [1]: 6.59 ± 0.03
- PAM activity in IP1 accumulation screen (EC20 Ca2+): potentiated IP1 accumulation

B7: Nb36: llama-derived CaSR-specific nanobody acting as PAM, SEQ ID NO:7 (protein)
VHH: QVQLVESGGGLVQAGESLRLSCAASGRTFSSYRMGWFRQGPGKEREFVAAITATGVRTYYADSVKGRFTISRDNAKNTVYLQMNSLQPDDTAVYLCAARRKAIFSVQQALTITDYDDWGQGTQVTVSS
modifications: CaSR Nb36
- Max. response (fold over basal ± S.E.M.), human ortholog (IP1 accumulation at EC20 Ca2+): 4.78 ± 0.21 fold over basal
- Potency (pEC50 ± S.E.M.), human ortholog [1]: 6.78 ± 0.17
- PAM activity in IP1 accumulation screen (EC20 Ca2+): potentiated IP1 accumulation

B8: Nb4: llama-derived CaSR-specific nanobody acting as PAM, SEQ ID NO:5 (protein)
VHH: QVQLVESGGGLVQAGGSLRLSCAASGRTFSTYRMGWFRQGLGKEREFVAAITANGVRTFYTDSVKGRFTISRDNAKNTLYLQMNSLQPDDTAVYLCAARRKGIFTVQQAQDITDWDYWGQGTQVTVSS
modifications: CaSR Nb4
- Max. response (fold over basal ± S.E.M.), human ortholog (IP1 accumulation at EC20 Ca2+): 3.74 ± 0.08 fold over basal
- Potency (pEC50 ± S.E.M.), human ortholog [1]: 7.08 ± 0.13
- PAM activity in IP1 accumulation screen (EC20 Ca2+): potentiated IP1 accumulation
- Effect on Ca2+ concentration-response curve (IP1): leftward shift
